The values below come from patent US20240301064A1 (published 2024).

Residue numbers refer to the chain shown, from its start.

B1: PMAB217 (bispecific antibody, human IgG1, kappa)
heavy: QVQLVQSGAEVKKPGASVKVSCKASGYTFSDHYMHWVRQAPGQGLEWMGTIAPSGGRTSYAQKFQGRVTMTRDTSTSTVYMELSSLRSEDTAVYYCAADNGHASGWLYYYGMDVWGQGTTVTVSSASTKGPSVFPLAPSSKSTSGGTAALGCLVKDYFPEPVTVSWNSGALTSGVHTFPAVLQSSGLYSLSSVVTVPSSSLGTQTYICNVNHKPSNTKVDKKVEPKSCDKTHTCPPCPAPEAAGAPSVFLFPPKPKDTLMISRTPEVTCVVVDVSHEDPEVKFNWYVDGVEVHNAKTKPREEQYNSTYRVVSVLTVLHQDWLNGKEYKCKVSNKALPAPIEKTISKAKGQPREPQVYTLPPSREEMTKNQVSLTCLVKGFYPSDIAVEWESNGQPENNYKTTPPVLDSDGSFFLYSKLTVDKSRWQQGNVFSCSVMHEALHNHYTQKSLSLSPGGGGGSGGGGSGGGGSEVQLLESGGGLVQPGGSLRLSCAASGFTFSDFWMHWVRQAPGKGLEWISYISGDSGYTNYADSVKGRFTISRDNSKNTLYLQMNSLRAEDTAVYYCARDRPYYYYMDVWGKGTTVTVSSGGGGSGGGGSGGGGSGGGGSDIQMTQSPSSLSASVGDRVTITCRASQSVSRSLAWYQQKPGKAPKLLIYAASSLQSGVPSRFSGSGSGTDFTLTISSLQPEDFATYYCQQYKSYPVTFGQGTKVEIK
light: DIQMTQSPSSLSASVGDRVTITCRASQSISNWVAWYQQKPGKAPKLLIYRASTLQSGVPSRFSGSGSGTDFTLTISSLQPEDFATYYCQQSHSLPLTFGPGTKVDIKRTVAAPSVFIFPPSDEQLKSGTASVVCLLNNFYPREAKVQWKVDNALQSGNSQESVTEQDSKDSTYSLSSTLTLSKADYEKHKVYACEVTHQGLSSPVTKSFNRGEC
B2: PMAB212 (bispecific antibody, human IgG1, kappa)
heavy: B1 heavy
light: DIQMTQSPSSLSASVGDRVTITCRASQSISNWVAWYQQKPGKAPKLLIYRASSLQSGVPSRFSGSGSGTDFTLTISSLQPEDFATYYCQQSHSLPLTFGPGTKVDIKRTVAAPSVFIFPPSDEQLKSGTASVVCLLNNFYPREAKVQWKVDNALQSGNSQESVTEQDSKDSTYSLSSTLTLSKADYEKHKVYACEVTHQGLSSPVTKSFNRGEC
B3: PMAB205 (bispecific antibody, human IgG1, kappa)
heavy: B1 heavy with R57S
light: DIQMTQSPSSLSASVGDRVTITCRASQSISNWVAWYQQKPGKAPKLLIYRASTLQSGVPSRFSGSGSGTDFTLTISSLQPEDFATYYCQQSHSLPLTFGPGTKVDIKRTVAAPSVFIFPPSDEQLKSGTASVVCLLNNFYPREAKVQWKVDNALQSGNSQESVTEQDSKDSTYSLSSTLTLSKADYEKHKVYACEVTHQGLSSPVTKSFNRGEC
B4: PMAB209 (bispecific antibody, human IgG1, kappa)
heavy: B1 heavy
light: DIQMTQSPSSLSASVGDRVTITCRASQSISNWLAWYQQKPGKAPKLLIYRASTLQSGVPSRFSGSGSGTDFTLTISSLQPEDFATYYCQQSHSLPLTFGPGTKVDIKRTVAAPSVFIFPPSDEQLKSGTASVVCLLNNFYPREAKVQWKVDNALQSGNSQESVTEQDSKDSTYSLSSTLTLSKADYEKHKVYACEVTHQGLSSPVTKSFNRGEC
B5: PMAB208 (bispecific antibody, human IgG1, kappa)
heavy: B1 heavy
light: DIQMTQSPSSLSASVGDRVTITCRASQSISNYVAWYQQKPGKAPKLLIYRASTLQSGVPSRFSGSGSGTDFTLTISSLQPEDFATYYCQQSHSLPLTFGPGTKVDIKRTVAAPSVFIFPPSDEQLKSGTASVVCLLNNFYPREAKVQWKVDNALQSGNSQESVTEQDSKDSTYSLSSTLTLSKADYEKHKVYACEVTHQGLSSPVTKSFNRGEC
B6: PMAB201 (bispecific antibody, human IgG1, kappa)
heavy: B1 heavy with S30T
light: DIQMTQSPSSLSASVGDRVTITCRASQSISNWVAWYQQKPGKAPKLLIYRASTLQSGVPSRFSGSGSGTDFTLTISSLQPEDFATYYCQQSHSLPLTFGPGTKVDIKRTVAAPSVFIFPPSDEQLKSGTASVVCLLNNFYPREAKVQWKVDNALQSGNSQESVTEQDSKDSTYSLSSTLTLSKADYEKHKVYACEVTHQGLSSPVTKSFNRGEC
B7: PMAB211 (bispecific antibody, human IgG1, kappa)
heavy: B1 heavy
light: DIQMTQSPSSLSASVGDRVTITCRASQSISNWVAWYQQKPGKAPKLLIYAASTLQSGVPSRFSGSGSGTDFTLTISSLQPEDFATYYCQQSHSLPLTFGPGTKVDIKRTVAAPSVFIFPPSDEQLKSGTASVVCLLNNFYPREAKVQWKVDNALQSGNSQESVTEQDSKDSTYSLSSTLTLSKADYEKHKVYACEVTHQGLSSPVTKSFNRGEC
B8: PMAB202 (bispecific antibody, human IgG1, kappa)
heavy: B1 heavy with D31S
light: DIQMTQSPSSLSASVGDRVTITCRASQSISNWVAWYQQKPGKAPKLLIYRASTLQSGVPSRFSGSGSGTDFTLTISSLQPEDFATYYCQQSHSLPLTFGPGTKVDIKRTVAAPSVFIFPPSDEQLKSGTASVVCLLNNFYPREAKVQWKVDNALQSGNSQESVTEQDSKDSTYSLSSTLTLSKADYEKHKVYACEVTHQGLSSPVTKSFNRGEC
B9: PMAB213 (bispecific antibody, human IgG1, kappa)
heavy: B1 heavy
light: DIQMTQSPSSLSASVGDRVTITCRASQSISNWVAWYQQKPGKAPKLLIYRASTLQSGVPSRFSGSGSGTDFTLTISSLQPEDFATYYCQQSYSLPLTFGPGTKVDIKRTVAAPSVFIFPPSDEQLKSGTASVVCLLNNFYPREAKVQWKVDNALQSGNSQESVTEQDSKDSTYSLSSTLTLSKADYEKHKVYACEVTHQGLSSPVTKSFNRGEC
B10: PMAB210 (bispecific antibody, human IgG1, kappa)
heavy: B1 heavy
light: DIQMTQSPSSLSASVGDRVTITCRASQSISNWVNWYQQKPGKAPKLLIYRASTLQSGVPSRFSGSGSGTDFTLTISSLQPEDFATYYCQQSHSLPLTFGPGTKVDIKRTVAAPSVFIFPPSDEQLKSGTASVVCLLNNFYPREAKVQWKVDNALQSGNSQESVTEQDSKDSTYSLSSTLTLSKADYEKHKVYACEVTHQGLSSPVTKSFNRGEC
B11: PMAB214 (bispecific antibody, human IgG1, kappa)
heavy: B1 heavy
light: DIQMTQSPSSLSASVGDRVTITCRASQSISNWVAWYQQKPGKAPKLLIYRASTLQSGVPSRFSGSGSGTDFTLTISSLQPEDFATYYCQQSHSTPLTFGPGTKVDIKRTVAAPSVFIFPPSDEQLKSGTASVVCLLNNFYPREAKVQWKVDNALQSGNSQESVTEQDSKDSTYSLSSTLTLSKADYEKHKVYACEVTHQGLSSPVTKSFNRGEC
B12: PMAB204 (bispecific antibody, human IgG1, kappa)
heavy: B1 heavy with T50I
light: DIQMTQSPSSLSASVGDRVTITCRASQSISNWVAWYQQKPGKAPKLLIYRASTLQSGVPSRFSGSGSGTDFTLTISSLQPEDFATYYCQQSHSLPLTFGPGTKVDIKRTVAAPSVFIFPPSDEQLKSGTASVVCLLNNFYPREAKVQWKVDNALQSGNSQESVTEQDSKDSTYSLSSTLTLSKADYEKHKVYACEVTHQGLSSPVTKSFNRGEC
B13: PMAB207 (bispecific antibody, human IgG1, kappa)
heavy: B1 heavy
light: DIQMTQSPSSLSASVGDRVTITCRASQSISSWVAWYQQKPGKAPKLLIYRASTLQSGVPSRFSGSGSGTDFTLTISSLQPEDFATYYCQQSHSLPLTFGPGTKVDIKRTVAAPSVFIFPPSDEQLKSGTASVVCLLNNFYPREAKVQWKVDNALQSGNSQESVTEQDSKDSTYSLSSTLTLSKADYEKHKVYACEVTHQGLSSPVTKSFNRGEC
B14: PMAB109 (bispecific antibody, human IgG1, kappa)
heavy: QVQLVQSGAEVKKPGASVKVSCKASGYSFTSYYMHWVRQAPGQGLEWMGIIAPSGGSTSYAQKFQGRVTMTRDTSTSTVYMELSSLRSEDTAVYYCASGWVYWGQGTLVTVSSASTKGPSVFPLAPSSKSTSGGTAALGCLVKDYFPEPVTVSWNSGALTSGVHTFPAVLQSSGLYSLSSVVTVPSSSLGTQTYICNVNHKPSNTKVDKKVEPKSCDKTHTCPPCPAPEAAGAPSVFLFPPKPKDTLMISRTPEVTCVVVDVSHEDPEVKFNWYVDGVEVHNAKTKPREEQYNSTYRVVSVLTVLHQDWLNGKEYKCKVSNKALPAPIEKTISKAKGQPREPQVYTLPPSREEMTKNQVSLTCLVKGFYPSDIAVEWESNGQPENNYKTTPPVLDSDGSFFLYSKLTVDKSRWQQGNVFSCSVMHEALHNHYTQKSLSLSPGGGGGSGGGGSGGGGSEVQLLESGGGLVQPGGSLRLSCAASGFTFSDFWMHWVRQAPGKGLEWISYISGDSGYTNYADSVKGRFTISRDNSKNTLYLQMNSLRAEDTAVYYCARDRPYYYYMDVWGKGTTVTVSSGGGGSGGGGSGGGGSGGGGSDIQMTQSPSSLSASVGDRVTITCRASQSVSRSLAWYQQKPGKAPKLLIYAASSLQSGVPSRFSGSGSGTDFTLTISSLQPEDFATYYCQQYKSYPVTFGQGTKVEIK
light: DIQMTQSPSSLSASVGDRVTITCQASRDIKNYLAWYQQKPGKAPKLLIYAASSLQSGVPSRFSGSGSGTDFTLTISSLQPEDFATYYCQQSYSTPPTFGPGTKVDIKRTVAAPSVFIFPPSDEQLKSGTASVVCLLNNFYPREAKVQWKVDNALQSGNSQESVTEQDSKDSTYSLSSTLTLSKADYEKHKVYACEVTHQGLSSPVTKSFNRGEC
B15: PMAB114 (bispecific antibody, human IgG1, kappa)
heavy: B14 heavy with S31T
light: not shown
B16: PMAB112 (bispecific antibody, human IgG1, kappa)
heavy: B14 heavy with S31T
light: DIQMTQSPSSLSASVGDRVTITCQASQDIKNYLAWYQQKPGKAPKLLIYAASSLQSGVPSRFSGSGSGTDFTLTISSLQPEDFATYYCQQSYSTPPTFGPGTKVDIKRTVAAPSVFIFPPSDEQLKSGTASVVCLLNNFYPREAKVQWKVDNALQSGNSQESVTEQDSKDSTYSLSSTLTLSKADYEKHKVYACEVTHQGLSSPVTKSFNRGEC
B17: PMAB115 (bispecific antibody, human IgG1, kappa)
heavy: B14 heavy with S31T
light: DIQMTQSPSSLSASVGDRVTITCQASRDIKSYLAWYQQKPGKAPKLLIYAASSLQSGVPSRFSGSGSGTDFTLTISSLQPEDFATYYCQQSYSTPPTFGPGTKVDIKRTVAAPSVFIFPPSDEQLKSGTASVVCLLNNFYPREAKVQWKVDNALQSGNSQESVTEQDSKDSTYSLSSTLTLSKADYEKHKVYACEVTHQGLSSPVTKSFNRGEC
B18: PMAB113 (bispecific antibody, human IgG1, kappa)
heavy: B14 heavy with S31T
light: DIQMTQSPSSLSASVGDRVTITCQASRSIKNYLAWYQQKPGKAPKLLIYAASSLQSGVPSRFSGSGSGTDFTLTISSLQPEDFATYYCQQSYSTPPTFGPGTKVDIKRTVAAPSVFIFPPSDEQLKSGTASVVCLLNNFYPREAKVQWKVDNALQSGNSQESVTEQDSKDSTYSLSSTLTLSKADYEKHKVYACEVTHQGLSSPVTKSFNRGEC
B19: PMAB111 (bispecific antibody, human IgG1, kappa)
heavy: B14 heavy with S31T
light: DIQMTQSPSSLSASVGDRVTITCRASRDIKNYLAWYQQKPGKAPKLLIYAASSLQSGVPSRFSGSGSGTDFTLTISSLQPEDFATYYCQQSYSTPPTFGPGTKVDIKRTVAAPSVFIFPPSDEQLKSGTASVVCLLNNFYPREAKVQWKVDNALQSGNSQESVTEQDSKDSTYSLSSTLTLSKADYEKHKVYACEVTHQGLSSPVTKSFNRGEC
B20: PMAB274 (antibody, human IgG1, kappa, V domains shown)
VH: EVQLVQSGAEVKKPGASVKVSCKASGYTFTTYYMHWVRQAPGQGLEWMGIINPSGGSTSYAQKFQGRVTMTRDTSTSTVYMELSSLRSEDTAVYYCASGWVYWGQGTLVTVSS
VL: DIQMTQSPSSLSASVGDRVTITCQASRDIKNYLAWYQQKPGKAPKLLIYAASSLQSGVPSRFSGSGSGTDFTLTISSLQPEDFATYYCQQSYSTPPTFGPGTKVDIKR
B21: PMAB275 (antibody, human IgG1, kappa, V domains shown)
VH: B20 VH with T28S, T31S
VL: B20 VL
B22: PMAB278 (antibody, human IgG1, kappa, V domains shown)
VH: B20 VH with T28S, T31S
VL: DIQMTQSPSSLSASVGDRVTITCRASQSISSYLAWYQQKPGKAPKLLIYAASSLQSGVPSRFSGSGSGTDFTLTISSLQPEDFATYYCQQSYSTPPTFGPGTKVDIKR
B23: PMAB277 (antibody, human IgG1, kappa, V domains shown)
VH: B20 VH
VL: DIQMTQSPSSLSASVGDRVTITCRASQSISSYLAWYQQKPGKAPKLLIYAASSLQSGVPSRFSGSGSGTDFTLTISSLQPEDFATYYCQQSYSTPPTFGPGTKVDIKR
B24: PMAB276 (antibody, human IgG1, kappa, V domains shown)
VH: B20 VH with T28S
VL: B20 VL
B25: PMAB233 (antibody, human IgG1, kappa, V domains shown)
VH: B20 VH with E1Q, N52Q
VL: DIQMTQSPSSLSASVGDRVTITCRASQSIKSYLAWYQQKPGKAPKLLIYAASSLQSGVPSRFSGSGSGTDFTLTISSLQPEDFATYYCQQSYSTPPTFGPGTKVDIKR
B26: PMAB235 (antibody, human IgG1, kappa, V domains shown)
VH: B20 VH with E1Q, N52Q
VL: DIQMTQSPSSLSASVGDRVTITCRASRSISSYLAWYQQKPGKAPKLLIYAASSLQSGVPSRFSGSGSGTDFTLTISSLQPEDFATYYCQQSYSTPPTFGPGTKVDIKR
B27: PMAB242 (antibody, human IgG1, kappa, V domains shown)
VH: B20 VH with E1Q, T28S, T31S, N52Q
VL: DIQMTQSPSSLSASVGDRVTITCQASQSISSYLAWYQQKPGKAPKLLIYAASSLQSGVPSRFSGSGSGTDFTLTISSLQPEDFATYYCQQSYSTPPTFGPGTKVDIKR
B28: PMAB234 (antibody, human IgG1, kappa, V domains shown)
VH: B20 VH with E1Q, N52Q
VL: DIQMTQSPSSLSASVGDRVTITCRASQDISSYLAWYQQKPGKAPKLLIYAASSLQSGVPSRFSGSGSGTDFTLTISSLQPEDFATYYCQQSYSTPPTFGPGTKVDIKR
B29: PMAB244 (antibody, human IgG1, kappa, V domains shown)
VH: B20 VH with E1Q, T28S, N52Q
VL: B20 VL
B30: PMAB238 (antibody, human IgG1, kappa, V domains shown)
VH: B20 VH with E1Q, T28S, T31S, N52Q
VL: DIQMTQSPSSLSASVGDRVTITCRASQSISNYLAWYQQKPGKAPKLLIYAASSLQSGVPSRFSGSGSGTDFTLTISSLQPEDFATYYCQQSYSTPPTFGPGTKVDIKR
B31: PMAB237 (antibody, human IgG1, kappa, V domains shown)
VH: B20 VH with E1Q, N52Q
VL: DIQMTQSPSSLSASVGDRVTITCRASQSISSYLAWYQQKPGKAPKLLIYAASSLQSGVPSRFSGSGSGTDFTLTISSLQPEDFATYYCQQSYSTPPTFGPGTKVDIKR
B32: PMAB243 (antibody, human IgG1, kappa, V domains shown)
VH: B20 VH with E1Q, T28S, T31S, N52Q
VL: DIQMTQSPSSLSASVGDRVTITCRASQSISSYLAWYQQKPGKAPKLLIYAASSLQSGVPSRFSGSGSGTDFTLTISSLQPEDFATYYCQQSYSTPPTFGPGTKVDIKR
B33: PMAB239 (antibody, human IgG1, kappa, V domains shown)
VH: B20 VH with E1Q, T28S, T31S, N52Q
VL: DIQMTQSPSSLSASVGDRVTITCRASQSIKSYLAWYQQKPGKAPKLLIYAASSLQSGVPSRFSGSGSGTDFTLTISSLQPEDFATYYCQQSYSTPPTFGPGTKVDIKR
B34: PMAB240 (antibody, human IgG1, kappa, V domains shown)
VH: B20 VH with E1Q, T28S, T31S, N52Q
VL: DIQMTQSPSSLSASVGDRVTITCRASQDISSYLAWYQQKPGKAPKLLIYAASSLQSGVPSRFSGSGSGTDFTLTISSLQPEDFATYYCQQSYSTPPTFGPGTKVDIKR
B35: PMAB241 (antibody, human IgG1, kappa, V domains shown)
VH: B20 VH with E1Q, T28S, T31S, N52Q
VL: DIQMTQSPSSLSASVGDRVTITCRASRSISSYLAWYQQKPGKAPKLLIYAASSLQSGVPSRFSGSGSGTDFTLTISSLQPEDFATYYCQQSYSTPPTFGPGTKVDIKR

The target of one experiment is T1, human PD-1 (human, UniProt Q15116 25-167, limits assumed).
T1 construct: also called huPD-1
T1 sequence (Q15116 25-167 limits assumed): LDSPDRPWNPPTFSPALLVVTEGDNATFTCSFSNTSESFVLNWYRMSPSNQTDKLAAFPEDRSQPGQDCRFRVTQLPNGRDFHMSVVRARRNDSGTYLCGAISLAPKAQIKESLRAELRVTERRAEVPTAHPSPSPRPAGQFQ
Briefly: BLI, antibody on AHC tip, soluble PD-1. On the technique in general: In BLI a coated tip is dipped into the sample, and binding shifts an interference pattern.
The term Kd denotes the constant that tells how readily two partners part at equilibrium. A high value points to weaker binding. B1 yielded a Kd of 424 nM.
For B2, the Kd was 1090 nM.
On the same count and under the same terms, in the case of B3 it was 795 nM.
On the same count and under the same terms, in the case of B4 it was 687 nM; in that of B5, 553 nM; in that of B6, 341 nM.
Still for that read-out and setting: in the case of B7 it was 1300 nM.
In turn, B8 registered a dissociation constant (Kd) of 755 nM.
Still for that read-out and setting: in the case of B9 it was 1430 nM; in that of B10, 3130 nM; in that of B11, 8050 nM.
The same measure, in the same setting: in the case of B12 it was 1710 nM; in that of B13, 445 nM.
The same measure, in the same setting: in the case of B14 it was 85.9 nM; in that of B15, 113 nM.
As to B16, binding was characterised by a dissociation constant (Kd) of 76.2 nM.
Same read-out and setting: in the case of B17 it was 229 nM; in that of B18, 91.7 nM; in that of B19, 67.6 nM.
Same read-out and setting: in the case of B20 it was 1790 nM.
B21 had a Kd of 849 nM. Against the preceding molecule, the Kd is about 2.1-fold lower.
B22 showed a Kd of 892 nM.
With B23, binding was put at a Kd of 896 nM.
As to B24, the Kd worked out at 985 nM.

A further experiment concerns the target T1, human PD-1. Nature of the experiment: ELISA on coated huPD-1. The procedure: Plates were coated with 2 μg/mL huPD-1 in 1×PBS at 4° C. overnight. Plates were blocked with 1×PBS with 1% BSA. Antibodies were tested in duplicate for binding with a 3-fold, dilution series from 300 nM to 0.4 nM. Signal is background subtracted for coated wells with 2° antibody only. […] PD-1 agonists comprising germline mutations bind to human PD-1.
A word on the IC50: it is the midpoint of a concentration-inhibition curve. A low value points to greater potency in that assay. The molecule B25 registered an IC50 of 85.9 nM.
B26 came in with an IC50 of 23.2 nM.
The same measure, in the same setting: in the case of B27 it was 30.6 nM; in that of B28, 28.1 nM.
On the same count and under the same terms, in the case of B29 it was 258 nM; in that of B30, 36.4 nM; in that of B31, 15.9 nM.
Still for that read-out and setting: in the case of B32 it was 40.7 nM.
As for B33, the IC50 came out at 44.7 nM.
The same measure, in the same setting: in the case of B34 it was 39 nM.
Same read-out and setting: in the case of B35 it was 46.4 nM.
